Reference: PMC10531723

Assays:
[1] = biological target: IAPP-CFP (human IAPP fused in frame with cyan fluorescent protein) (human); experiment: FRET or BRET; acceptor photobleaching FRET (AB FRET) by confocal microscopy (Leica TCS SP5) of yeast cells co-expressing a CFP fusion (donor) and a YFP fusion (acceptor); acceptor bleached at 514 nm, 100% intensity; cells washed, air-dried on polylysine slides and mounted in …; three independent transformants, at least 100 cells each
[2] = biological target: Aβ42-CFP (human Aβ(1-42) fused to CFP) (human) (UniProt P05067); experiment: as above

Sequence of IAPP-CFP (human IAPP fused in frame with cyan fluorescent protein) (human) (P10997 8-37): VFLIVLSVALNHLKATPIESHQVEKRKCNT

IAPP-YFP (human IAPP fused in frame with yellow fluorescent protein) (domain or fragment)
FRET efficiency [1]: 31% | FRET efficiency [2]: 20%
